In US20200317817A1 (XOMA US, published 2020):
Numbering of substitutions follows the chain as printed.

T1: mouse PTH1R overexpressed on CHO cells (mouse, UniProt P41593 27-591)
T1 construct: whole, on cells; also called CHO mouse PTH1R; CHO Mouse PTHR
T1 sequence (looked up): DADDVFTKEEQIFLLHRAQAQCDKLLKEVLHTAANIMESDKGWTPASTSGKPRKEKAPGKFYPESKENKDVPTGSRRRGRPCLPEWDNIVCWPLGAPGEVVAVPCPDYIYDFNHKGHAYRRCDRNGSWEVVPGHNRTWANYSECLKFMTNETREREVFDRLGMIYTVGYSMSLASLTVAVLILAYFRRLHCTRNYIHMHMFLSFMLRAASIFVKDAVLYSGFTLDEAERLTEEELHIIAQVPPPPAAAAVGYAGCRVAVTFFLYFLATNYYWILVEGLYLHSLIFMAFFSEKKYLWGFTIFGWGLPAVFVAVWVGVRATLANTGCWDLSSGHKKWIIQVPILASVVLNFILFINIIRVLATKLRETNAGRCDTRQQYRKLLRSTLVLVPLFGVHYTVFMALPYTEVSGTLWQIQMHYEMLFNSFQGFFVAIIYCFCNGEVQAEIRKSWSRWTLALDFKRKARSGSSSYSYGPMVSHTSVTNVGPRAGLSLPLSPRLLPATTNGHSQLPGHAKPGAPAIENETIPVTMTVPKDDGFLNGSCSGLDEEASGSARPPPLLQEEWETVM

T2: human PTH1R overexpressed on CHO cells (human, UniProt Q03431 27-593)
T2 construct: whole, on cells; also called CHO human PTH1R; CHO Human PTHR
T2 sequence (looked up): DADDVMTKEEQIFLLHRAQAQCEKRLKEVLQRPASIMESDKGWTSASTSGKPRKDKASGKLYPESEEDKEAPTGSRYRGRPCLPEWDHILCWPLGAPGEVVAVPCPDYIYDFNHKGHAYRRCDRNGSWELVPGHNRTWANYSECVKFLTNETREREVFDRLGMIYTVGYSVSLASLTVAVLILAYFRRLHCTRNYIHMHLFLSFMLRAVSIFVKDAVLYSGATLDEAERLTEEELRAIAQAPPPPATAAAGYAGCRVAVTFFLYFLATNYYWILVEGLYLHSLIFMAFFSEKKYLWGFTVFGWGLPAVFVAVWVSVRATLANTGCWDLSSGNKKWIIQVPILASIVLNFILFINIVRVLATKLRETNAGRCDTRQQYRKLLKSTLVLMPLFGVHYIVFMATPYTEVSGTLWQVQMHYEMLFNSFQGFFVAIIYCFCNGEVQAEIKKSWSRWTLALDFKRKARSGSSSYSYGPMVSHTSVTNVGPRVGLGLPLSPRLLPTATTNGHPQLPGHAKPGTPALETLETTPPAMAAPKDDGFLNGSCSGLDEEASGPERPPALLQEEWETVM

T3: human PTH1R on Saos-2 cells (endogenous) (human, UniProt Q03431 27-593)
T3 sequence (looked up): T2 sequence (looked up)

T4: rat PTH1R on UMR106 cells (rat, UniProt P25961 27-591)
T4 sequence (looked up): T1 sequence (looked up) with P58S, L497P, I518T, N520T, I523L, T528A

B1: XPA.85.341 (antibody, V domains shown)
VH: EVQLVETGGGVVRPGGSLRLSCAASGFTFSSSAMSWVRQTPGKELQWVSAITPGGEGTYYADVVKGRFTISRDNSKDTLYLQMDSLRAEDTAVYYCARDLYGSYGDAFDIWGQGTLVTVSS
VL: SYELTQPSSVSVSPGQTASITCSGDKLGEKYASWYQQKPGQSPVLVMFEDTKRPSGIPERFSGSNSGNTATLTISGTQAEDEADYYCQAWDSSWVFGGGTQLTVL
notes: Light-chain-shuffled variant of XPA.85.017
B2: XPA.85.287 (antibody, V domains shown)
VH: B1 VH
VL: SYVLTQPPSVSVAPGQTARITCSGDKLGDRYVSWYQQKPGQSPVLVMFEDTGRPAGIPERFSGSNSGNTATLTISGTQAEDEADYYCQAWGTSWVFGGGTQLTVL
notes: also called Ab287
B3: XPA.85.339 (antibody, V domains shown)
VH: B1 VH
VL: SYELTQPPSVSVAPGQTATITCSGDRLGDKFISWYQQKPGQSPLLVIFEDNERPSRIPERFSGSNSGNSATLTISGTQAVDEADYYCQAWDSSWVFGGGTQLTVL
notes: as for B1

Columns and labels:
[1] = target: T1, mouse PTH1R overexpressed on CHO cells; assay: flow cytometry on CHO cells, with 1 uM PTH as competitor
Experimental: (§1) To characterize antibody binding to PTH1R, cells were labeled with either CellTrace™ CFSE or CellTrace™ Violet. Unlabeled CHOK1 parent, CHO human PTH1R labeled with CellTrace™CFSE, and CHO mouse PTH1R labeled with CellTrace™Violet were pooled together and stained with increasing concentrations of antibody. Antibodies were incubated for 24 hr at 4° C. followed by two washes with FACS Buffer (0.5% BSA, 0.1% NaN3 in DPBS). Cells were then incubated with Allophycocyanin (APC) AffiniPure F(ab′)₂ Fragment Goat Anti-Human IgG (H+L) (Jackson ImmunoResearch, West Grove, Pa.) for 20 minutes at 4° C. Followed by two washes, cells were resuspended in FACS Buffer. Samples were acquired using BD Cytometer (BD Biosciences, San Jose, Calif.) and data were analyzed using FlowJo (FlowJo, LLC, Ashland, Oreg.) and Prism (GraphPad Software, La Jolla, Calif.).

[2] = target: T2, human PTH1R overexpressed on CHO cells; assay: as above
Experimental: as §1

[3] = target: T1, mouse PTH1R overexpressed on CHO cells; assay: cell-based or functional assay
[4] = target: T3, human PTH1R on Saos-2 cells (endogenous); assay: cell-based or functional assay
[5] = target: T2, human PTH1R overexpressed on CHO cells; assay: cell-based or functional assay
[6] = target: T4, rat PTH1R on UMR106 cells; assay: cell-based or functional assay
[7] = target: T1, mouse PTH1R overexpressed on CHO cells; assay: flow cytometry on CHO cells, 24 hr at 4 C
Experimental: as §1

[8] = target: T2, human PTH1R overexpressed on CHO cells; assay: flow cytometry on CHO cells, 24 hr at 4 C
Experimental: as §1

[9] = target: T1, mouse PTH1R overexpressed on CHO cells; assay: flow cytometry on CHO cells, with 3 uM PTHrP as competitor
Experimental: as §1

[10] = target: T2, human PTH1R overexpressed on CHO cells; assay: as above
Experimental: as §1

EC50 [1]	EC50 [2]	EC50 of PTH(1-34), cAMP assay, with 267 nM IgG [3]	EC50 of PTH(1-34), cAMP assay, with 267 nM IgG [4]	EC50 of PTHrP(1-34), cAMP assay, with 267 nM IgG [4]	EC50 of PTH(1-34), cAMP assay, with 267 nM IgG [5]	EC50 of PTH(1-34), cAMP assay, with 267 nM IgG [6]	EC50 [7]	EC50 [8]	EC50 [9]	EC50 [10]	EC50 of PTHrP(1-34), cAMP assay, with 267 nM IgG [6]	further results	Binder
0.778 nM	5.39 nM	2.15 nM	38.1 nM	63 nM	0.404 nM	13.7 nM	0.343 nM	0.202 nM	14.5 nM	1.11 nM	–	–	B1
0.206 nM	1.86 nM	13.6 nM	78.6 nM	62.2 nM	0.908 nM	66.7 nM	0.216 nM	0.044 nM	1.51 nM	0.304 nM	11.6 nM	EC50 of PTHrP(1-34), cAMP assay, with 267 nM IgG [3]: 5.77 nM; fold-shift in PTH(1-34) EC50 vs vehicle only, cAMP assay [3]: > 100 fold; fold-shift in PTHrP(1-34) EC50 vs vehicle only, cAMP assay [3]: > 100 fold; fold-shift in PTH(1-34) EC50 vs vehicle only, cAMP assay [4]: > 100 fold; fold-shift in PTHrP(1-34) EC50 vs vehicle only, cAMP assay [4]: 89 fold; EC50 of PTHrP(1-34), cAMP assay, with 267 nM IgG [5]: 52.7 nM; fold-shift in PTH(1-34) EC50 vs vehicle only, cAMP assay [5]: 29 fold; fold-shift in PTHrP(1-34) EC50 vs vehicle only, cAMP assay [5]: > 100 fold; fold-shift in PTH(1-34) EC50 vs vehicle only, cAMP assay [6]: > 100 fold; fold-shift in PTHrP(1-34) EC50 vs vehicle only, cAMP assay [6]: 35 fold	B2
0.327 nM	2.98 nM	1.95 nM	24.8 nM	31.4 nM	0.613 nM	7.9 nM	0.234 nM	0.142 nM	18.7 nM	0.479 nM	3.48 nM	–	B3
